Data from PMC9018054, “Biotechnological potential and initial characterization of two novel sesquiterpene synthases from Basidiomycota Coniophora puteana for heterologous production of δ-cadinol” (Microbial Cell Factories, 2022).

Substrate: CC(C)=CCC/C(C)=C/CC/C(C)=C/CO[P@@](=O)(O)OP(=O)(O)O
Assay: purified protein
Format: biochemical, Coniophora puteana
Settings: 25 °C, FPP 0-70 µM in methanol, 0.8–1.2 µM enzyme

Molecule | Km [µM] | kcat [s⁻¹] | kcat/Km [M⁻¹ s⁻¹]
Copu9 (Coniophora puteana RWD-64-598 SS2; N228A) (protein, full-length, codon-optimized, N-terminal hexa-His tag (pET-M11), expressed in E. coli BL21 RIL DE3; homodimer; 13 N-terminal residues not visible in crystal) MSPTATFTTTSSEENAPTKFILPDLVSDCTYPLLLNDNCEPVARASEQWLIAGARLQEPRRTKFMGLLAGELTAACYPHADASHLRVCVDFMNWLFNMDDWLDDFDVDDTWGMRHCCLGAFRDPVGFETDKLGGLMSKSFFSRFRQDGGPGCTERFIHTMDLFFIAVAQQAGDRANGITPDLESYITVRRDTSGCKPCFALIEYAAGIDLPDHVIYHPTLAAMEEATADLVTWSNDIFSYNKEQVTDDTHNMIPVLMRERGLDLQGAVDFVGRLCKGTIERFETERARLPSWGPELDAQVQTYIEGLQNWIVGSLHWSFDSHRYFGKDGHAVKKHRIVKLLPKRVPQQA | 4.42 ± 0.59 | 0.0262 ± 0.0007 | 5940
Copu9 (Coniophora puteana RWD-64-598 SS2; T192N) (protein, full-length, codon-optimized, N-terminal hexa-His tag (pET-M11), expressed in E. coli BL21 RIL DE3; homodimer; 13 N-terminal residues not visible in crystal) MSPTATFTTTSSEENAPTKFILPDLVSDCTYPLLLNDNCEPVARASEQWLIAGARLQEPRRTKFMGLLAGELTAACYPHADASHLRVCVDFMNWLFNMDDWLDDFDVDDTWGMRHCCLGAFRDPVGFETDKLGGLMSKSFFSRFRQDGGPGCTERFIHTMDLFFIAVAQQAGDRANGITPDLESYITVRRDNSGCKPCFALIEYAAGIDLPDHVIYHPTLAAMEEATNDLVTWSNDIFSYNKEQVTDDTHNMIPVLMRERGLDLQGAVDFVGRLCKGTIERFETERARLPSWGPELDAQVQTYIEGLQNWIVGSLHWSFDSHRYFGKDGHAVKKHRIVKLLPKRVPQQA | 8.28 ± 0.60 | 0.0396 ± 0.0008 | 4780
Copu9 (Coniophora puteana RWD-64-598 SS2; P197C) (protein, full-length, codon-optimized, N-terminal hexa-His tag (pET-M11), expressed in E. coli BL21 RIL DE3; homodimer; 13 N-terminal residues not visible in crystal) MSPTATFTTTSSEENAPTKFILPDLVSDCTYPLLLNDNCEPVARASEQWLIAGARLQEPRRTKFMGLLAGELTAACYPHADASHLRVCVDFMNWLFNMDDWLDDFDVDDTWGMRHCCLGAFRDPVGFETDKLGGLMSKSFFSRFRQDGGPGCTERFIHTMDLFFIAVAQQAGDRANGITPDLESYITVRRDTSGCKCCFALIEYAAGIDLPDHVIYHPTLAAMEEATNDLVTWSNDIFSYNKEQVTDDTHNMIPVLMRERGLDLQGAVDFVGRLCKGTIERFETERARLPSWGPELDAQVQTYIEGLQNWIVGSLHWSFDSHRYFGKDGHAVKKHRIVKLLPKRVPQQA | 6.82 ± 0.77 | 0.0381 ± 0.001 | 5580
Copu9 (Coniophora puteana RWD-64-598 SS2; T73C) (protein, full-length, codon-optimized, N-terminal hexa-His tag (pET-M11), expressed in E. coli BL21 RIL DE3; homodimer; 13 N-terminal residues not visible in crystal) MSPTATFTTTSSEENAPTKFILPDLVSDCTYPLLLNDNCEPVARASEQWLIAGARLQEPRRTKFMGLLAGELCAACYPHADASHLRVCVDFMNWLFNMDDWLDDFDVDDTWGMRHCCLGAFRDPVGFETDKLGGLMSKSFFSRFRQDGGPGCTERFIHTMDLFFIAVAQQAGDRANGITPDLESYITVRRDTSGCKPCFALIEYAAGIDLPDHVIYHPTLAAMEEATNDLVTWSNDIFSYNKEQVTDDTHNMIPVLMRERGLDLQGAVDFVGRLCKGTIERFETERARLPSWGPELDAQVQTYIEGLQNWIVGSLHWSFDSHRYFGKDGHAVKKHRIVKLLPKRVPQQA | 6.28 ± 1.37 | 0.0502 ± 0.0026 | 8000
Copu9 (Coniophora puteana RWD-64-598 SS2; G194A) (protein, full-length, codon-optimized, N-terminal hexa-His tag (pET-M11), expressed in E. coli BL21 RIL DE3; homodimer; 13 N-terminal residues not visible in crystal) MSPTATFTTTSSEENAPTKFILPDLVSDCTYPLLLNDNCEPVARASEQWLIAGARLQEPRRTKFMGLLAGELTAACYPHADASHLRVCVDFMNWLFNMDDWLDDFDVDDTWGMRHCCLGAFRDPVGFETDKLGGLMSKSFFSRFRQDGGPGCTERFIHTMDLFFIAVAQQAGDRANGITPDLESYITVRRDTSACKPCFALIEYAAGIDLPDHVIYHPTLAAMEEATNDLVTWSNDIFSYNKEQVTDDTHNMIPVLMRERGLDLQGAVDFVGRLCKGTIERFETERARLPSWGPELDAQVQTYIEGLQNWIVGSLHWSFDSHRYFGKDGHAVKKHRIVKLLPKRVPQQA | 7.00 ± 0.37 | 0.036 ± 0.0005 | 5140
Copu9 (Coniophora puteana RWD-64-598 SS2; S314N) (protein, full-length, codon-optimized, N-terminal hexa-His tag (pET-M11), expressed in E. coli BL21 RIL DE3; homodimer; 13 N-terminal residues not visible in crystal) MSPTATFTTTSSEENAPTKFILPDLVSDCTYPLLLNDNCEPVARASEQWLIAGARLQEPRRTKFMGLLAGELTAACYPHADASHLRVCVDFMNWLFNMDDWLDDFDVDDTWGMRHCCLGAFRDPVGFETDKLGGLMSKSFFSRFRQDGGPGCTERFIHTMDLFFIAVAQQAGDRANGITPDLESYITVRRDTSGCKPCFALIEYAAGIDLPDHVIYHPTLAAMEEATNDLVTWSNDIFSYNKEQVTDDTHNMIPVLMRERGLDLQGAVDFVGRLCKGTIERFETERARLPSWGPELDAQVQTYIEGLQNWIVGNLHWSFDSHRYFGKDGHAVKKHRIVKLLPKRVPQQA | 5.10 ± 0.54 | 0.0192 ± 0.0005 | 3760
Copu9 (Coniophora puteana RWD-64-598 SS2; C195V) (protein, full-length, codon-optimized, N-terminal hexa-His tag (pET-M11), expressed in E. coli BL21 RIL DE3; homodimer; 13 N-terminal residues not visible in crystal) MSPTATFTTTSSEENAPTKFILPDLVSDCTYPLLLNDNCEPVARASEQWLIAGARLQEPRRTKFMGLLAGELTAACYPHADASHLRVCVDFMNWLFNMDDWLDDFDVDDTWGMRHCCLGAFRDPVGFETDKLGGLMSKSFFSRFRQDGGPGCTERFIHTMDLFFIAVAQQAGDRANGITPDLESYITVRRDTSGVKPCFALIEYAAGIDLPDHVIYHPTLAAMEEATNDLVTWSNDIFSYNKEQVTDDTHNMIPVLMRERGLDLQGAVDFVGRLCKGTIERFETERARLPSWGPELDAQVQTYIEGLQNWIVGSLHWSFDSHRYFGKDGHAVKKHRIVKLLPKRVPQQA | 8.48 ± 0.51 | 0.0398 ± 0.0007 | 4690
Copu9 (Coniophora puteana RWD-64-598 SS2) (protein, full-length, codon-optimized, N-terminal hexa-His tag (pET-M11), expressed in E. coli BL21 RIL DE3; homodimer; 13 N-terminal residues not visible in crystal) MSPTATFTTTSSEENAPTKFILPDLVSDCTYPLLLNDNCEPVARASEQWLIAGARLQEPRRTKFMGLLAGELTAACYPHADASHLRVCVDFMNWLFNMDDWLDDFDVDDTWGMRHCCLGAFRDPVGFETDKLGGLMSKSFFSRFRQDGGPGCTERFIHTMDLFFIAVAQQAGDRANGITPDLESYITVRRDTSGCKPCFALIEYAAGIDLPDHVIYHPTLAAMEEATNDLVTWSNDIFSYNKEQVTDDTHNMIPVLMRERGLDLQGAVDFVGRLCKGTIERFETERARLPSWGPELDAQVQTYIEGLQNWIVGSLHWSFDSHRYFGKDGHAVKKHRIVKLLPKRVPQQA | 4.59 ± 0.17 | 0.0324 ± 0.0003 | 7070
Copu9 (Coniophora puteana RWD-64-598 SS2; C76V) (protein, full-length, codon-optimized, N-terminal hexa-His tag (pET-M11), expressed in E. coli BL21 RIL DE3; homodimer; 13 N-terminal residues not visible in crystal) MSPTATFTTTSSEENAPTKFILPDLVSDCTYPLLLNDNCEPVARASEQWLIAGARLQEPRRTKFMGLLAGELTAAVYPHADASHLRVCVDFMNWLFNMDDWLDDFDVDDTWGMRHCCLGAFRDPVGFETDKLGGLMSKSFFSRFRQDGGPGCTERFIHTMDLFFIAVAQQAGDRANGITPDLESYITVRRDTSGCKPCFALIEYAAGIDLPDHVIYHPTLAAMEEATNDLVTWSNDIFSYNKEQVTDDTHNMIPVLMRERGLDLQGAVDFVGRLCKGTIERFETERARLPSWGPELDAQVQTYIEGLQNWIVGSLHWSFDSHRYFGKDGHAVKKHRIVKLLPKRVPQQA | 3.14 ± 0.45 | 0.0291 ± 0.0007 | 9250

Target: T1, Copu5 (Coniophora puteana, UniProt A0A5M3MX24)
T1 construct: full-length, codon-optimized, N-terminal hexa-His tag (pET-M11) for thermal shift, expressed in E. coli BL21 RIL DE3; purified in pyrophosphate-containing buffer; pACYC-based operon in E. coli HMS174 (DE3) for terpene production
Assay: sesquiterpene production in E. coli, GC-MS and NMR of product
Format: cell-based
Settings: E. coli HMS174 (DE3) with DXS and IDI co-expression, endogenous FPP; product (+)-δ-cadinol

T1 sequence (A0A5M3MX24 entry or part of it): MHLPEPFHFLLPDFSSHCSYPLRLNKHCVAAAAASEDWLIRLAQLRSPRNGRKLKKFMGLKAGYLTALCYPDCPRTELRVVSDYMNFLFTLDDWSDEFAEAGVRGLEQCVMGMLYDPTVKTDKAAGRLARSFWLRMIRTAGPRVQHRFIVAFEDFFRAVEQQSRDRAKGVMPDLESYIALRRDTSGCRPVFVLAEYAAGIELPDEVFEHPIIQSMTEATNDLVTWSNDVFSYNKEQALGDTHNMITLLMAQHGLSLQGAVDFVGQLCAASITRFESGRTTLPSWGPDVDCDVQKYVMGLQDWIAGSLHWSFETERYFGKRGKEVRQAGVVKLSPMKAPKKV

Molecule | sesquiterpene production in E. coli, GC-MS and NMR of product
CC(C)=CCC/C(C)=C/CC/C(C)=C/COP(=O)(O)OP(=O)(O)O [FPP] | catalyze the formation of (+)-δ-cadinol as main product from its direct precursor FPP

Target: the molecule itself
Assay: SEC; HighLoad Superdex S200 16/60; 20 mM Tris/HCl pH 7.5, 150 mM NaCl, 5 mM MgCl2; calibrated with a high molecular weight standard
Settings: not given

Molecule | stoichiometry N
Copu9, (+)-δ-cadinol synthase from Coniophora puteana (enzyme, UniProt A0A5M3MXY8 1-349, looked up, Copu9, sesquiterpene synthase ((+)-δ-cadinol synthase) of Coniophora puteana, XP_007765560; codon-optimised open reading frame; the crystal structure is complete except for the 13 N-terminal residues; no removal of the tag is described; Crystallised with three Mg2+ ions and alendronate (AHD); also called Copu9 WT; Copu9·Mg3·AHD; source: E. coli BL21 RIL DE3, purified (Ni2+-NTA, size exclusion …)) MSPTATFTTTSSEENAPTKFILPDLVSDCTYPLLLNDNCEPVARASEQWLIAGARLQEPRRTKFMGLLAGELTAACYPHADASHLRVCVDFMNWLFNMDDWLDDFDVDDTWGMRHCCLGAFRDPVGFETDKLGGLMSKSFFSRFRQDGGPGCTERFIHTMDLFFIAVAQQAGDRANGITPDLESYITVRRDTSGCKPCFALIEYAAGIDLPDHVIYHPTLAAMEEATNDLVTWSNDIFSYNKEQVTDDTHNMIPVLMRERGLDLQGAVDFVGRLCKGTIERFETERARLPSWGPELDAQVQTYIEGLQNWIVGSLHWSFDSHRYFGKDGHAVKKHRIVKLLPKRVPQQA | 2
